Non-standard residues stand in square brackets, D forms with d.
B1: ZP-0168 (peptide)
peptide: Ac-[dH][dH][dV][dI][dV][dP]-NH2
SMILES: CC[C@@H](C)[C@@H](NC(=O)[C@H](NC(=O)[C@@H](Cc1c[nH]cn1)NC(=O)[C@@H](Cc1c[nH]cn1)NC(C)=O)C(C)C)C(=O)N[C@@H](C(=O)N1CCC[C@@H]1C(N)=O)C(C)C
B2: ZP-0161 (peptide)
peptide: Ac-[dH][dH][dV][dK][dV][dA]-NH2
SMILES: CC(=O)N[C@H](Cc1c[nH]cn1)C(=O)N[C@H](Cc1c[nH]cn1)C(=O)N[C@@H](C(=O)N[C@H](CCCCN)C(=O)N[C@@H](C(=O)N[C@H](C)C(N)=O)C(C)C)C(C)C
B3: ZP-0175 (peptide)
peptide: Ac-[dH][dH][dT][dI][dV][dV]-NH2
SMILES: CC[C@@H](C)[C@@H](NC(=O)[C@H](NC(=O)[C@@H](Cc1c[nH]cn1)NC(=O)[C@@H](Cc1c[nH]cn1)NC(C)=O)[C@H](C)O)C(=O)N[C@@H](C(=O)N[C@@H](C(N)=O)C(C)C)C(C)C
B4: ZP-0169 (peptide)
peptide: Ac-[dH][dH][dV][dI][dV][dV]-NH2
SMILES: CC[C@@H](C)[C@@H](NC(=O)[C@H](NC(=O)[C@@H](Cc1c[nH]cn1)NC(=O)[C@@H](Cc1c[nH]cn1)NC(C)=O)C(C)C)C(=O)N[C@@H](C(=O)N[C@@H](C(N)=O)C(C)C)C(C)C
B5: ZP-0162 (peptide)
peptide: Ac-[dH][dH][dV][dE][dV][dA]-NH2
SMILES: CC(=O)N[C@H](Cc1c[nH]cn1)C(=O)N[C@H](Cc1c[nH]cn1)C(=O)N[C@@H](C(=O)N[C@H](CCC(=O)O)C(=O)N[C@@H](C(=O)N[C@H](C)C(N)=O)C(C)C)C(C)C
B6: ZP-0158 (peptide)
peptide: Ac-[dH][dH][dV][dI][dV][dA]-NH2
SMILES: CC[C@@H](C)[C@@H](NC(=O)[C@H](NC(=O)[C@@H](Cc1c[nH]cn1)NC(=O)[C@@H](Cc1c[nH]cn1)NC(C)=O)C(C)C)C(=O)N[C@@H](C(=O)N[C@H](C)C(N)=O)C(C)C
B7: ZP-0172 (peptide)
peptide: Ac-[dH][dH][dV][dI][dV][dW]-NH2
SMILES: CC[C@@H](C)[C@@H](NC(=O)[C@H](NC(=O)[C@@H](Cc1c[nH]cn1)NC(=O)[C@@H](Cc1c[nH]cn1)NC(C)=O)C(C)C)C(=O)N[C@@H](C(=O)N[C@H](Cc1c[nH]c2ccccc12)C(N)=O)C(C)C
B8: ZP-0171 (peptide)
peptide: Ac-[dH][dH][dV][dI][dV][dY]-NH2
SMILES: CC[C@@H](C)[C@@H](NC(=O)[C@H](NC(=O)[C@@H](Cc1c[nH]cn1)NC(=O)[C@@H](Cc1c[nH]cn1)NC(C)=O)C(C)C)C(=O)N[C@@H](C(=O)N[C@H](Cc1ccc(O)cc1)C(N)=O)C(C)C
B9: ZP-0170 (peptide)
peptide: Ac-[dH][dH][dV][dI][dV][dT]-NH2
SMILES: CC[C@@H](C)[C@@H](NC(=O)[C@H](NC(=O)[C@@H](Cc1c[nH]cn1)NC(=O)[C@@H](Cc1c[nH]cn1)NC(C)=O)C(C)C)C(=O)N[C@@H](C(=O)N[C@@H](C(N)=O)[C@H](C)O)C(C)C

molecular target: α-synuclein (UniProt P37840 1-140); assay: cell-based or functional assay
Note: test concentration or dose not given here.

Row | Binder | % decrease in ThT fluorescence [%] | % decrease in rate of aggregation [%] | % increase in Lag phase [%]
1 | B1 | -8.6 | -5.4 | 29.8
2 | B2 | -5.9 | 2.3 | 19.7
3 | B3 | 21.9 | 16.8 | 89.7
4 | B4 | -0.5 | -13.3 | 26.1
5 | B5 | 6.3 | 6.6 | 33.4
6 | B6 | 15.1 | 18.4 | 32.5
7 | B7 | -1.7 | 6.9 | 28.1
8 | B8 | 13.9 | 13.2 | 43.6
9 | B9 | 24.5 | 29.3 | 29.4

Reference: US8290713 (LONZA BIOLOGICS, dated 2012)
